# In US20140274782A1, “AFFINITY REAGENTS AND METHODS FOR DETECTION, PURIFICATION, AND PROTEOMIC ANALYSIS OF METHYLATED PROTEINS” (The Board of Trustees of the Leland Stanford Junior …, priority 2013, published 2014):
# T1: G9a and GLP (Homo sapiens, UniProt Q96KQ7+Q9H9B1)
# T1 sequence (Q96KQ7 2-1210 limits assumed): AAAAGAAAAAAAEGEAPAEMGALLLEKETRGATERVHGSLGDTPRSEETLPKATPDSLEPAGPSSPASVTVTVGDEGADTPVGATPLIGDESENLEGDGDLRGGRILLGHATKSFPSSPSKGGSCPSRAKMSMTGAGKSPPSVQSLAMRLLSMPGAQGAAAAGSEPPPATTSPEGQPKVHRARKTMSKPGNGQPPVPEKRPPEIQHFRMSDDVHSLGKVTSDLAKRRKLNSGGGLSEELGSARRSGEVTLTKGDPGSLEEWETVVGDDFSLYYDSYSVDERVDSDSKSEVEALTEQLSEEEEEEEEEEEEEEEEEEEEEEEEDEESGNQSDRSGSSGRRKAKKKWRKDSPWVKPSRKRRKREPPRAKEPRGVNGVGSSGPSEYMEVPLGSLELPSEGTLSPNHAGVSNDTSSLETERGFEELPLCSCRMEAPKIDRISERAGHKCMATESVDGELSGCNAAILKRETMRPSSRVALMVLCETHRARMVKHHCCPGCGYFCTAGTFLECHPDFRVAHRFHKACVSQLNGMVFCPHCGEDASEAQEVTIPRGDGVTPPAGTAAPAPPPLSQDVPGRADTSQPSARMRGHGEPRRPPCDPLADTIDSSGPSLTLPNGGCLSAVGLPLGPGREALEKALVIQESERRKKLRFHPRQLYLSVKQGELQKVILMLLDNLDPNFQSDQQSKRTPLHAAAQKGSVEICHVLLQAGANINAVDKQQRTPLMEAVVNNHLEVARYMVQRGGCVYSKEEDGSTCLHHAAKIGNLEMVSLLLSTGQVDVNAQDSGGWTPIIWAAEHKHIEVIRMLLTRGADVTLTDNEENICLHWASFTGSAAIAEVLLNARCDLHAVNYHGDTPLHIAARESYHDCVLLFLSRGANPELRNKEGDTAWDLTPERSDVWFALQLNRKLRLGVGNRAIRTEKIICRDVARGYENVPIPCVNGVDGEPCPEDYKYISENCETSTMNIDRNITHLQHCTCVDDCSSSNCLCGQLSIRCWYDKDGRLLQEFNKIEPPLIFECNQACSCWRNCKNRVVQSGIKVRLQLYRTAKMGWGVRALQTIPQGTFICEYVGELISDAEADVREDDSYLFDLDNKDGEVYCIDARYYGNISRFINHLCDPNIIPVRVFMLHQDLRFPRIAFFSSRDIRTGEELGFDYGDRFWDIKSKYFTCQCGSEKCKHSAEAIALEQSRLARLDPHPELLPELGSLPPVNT
# T1 sequence (Q9H9B1 2-1298 limits assumed): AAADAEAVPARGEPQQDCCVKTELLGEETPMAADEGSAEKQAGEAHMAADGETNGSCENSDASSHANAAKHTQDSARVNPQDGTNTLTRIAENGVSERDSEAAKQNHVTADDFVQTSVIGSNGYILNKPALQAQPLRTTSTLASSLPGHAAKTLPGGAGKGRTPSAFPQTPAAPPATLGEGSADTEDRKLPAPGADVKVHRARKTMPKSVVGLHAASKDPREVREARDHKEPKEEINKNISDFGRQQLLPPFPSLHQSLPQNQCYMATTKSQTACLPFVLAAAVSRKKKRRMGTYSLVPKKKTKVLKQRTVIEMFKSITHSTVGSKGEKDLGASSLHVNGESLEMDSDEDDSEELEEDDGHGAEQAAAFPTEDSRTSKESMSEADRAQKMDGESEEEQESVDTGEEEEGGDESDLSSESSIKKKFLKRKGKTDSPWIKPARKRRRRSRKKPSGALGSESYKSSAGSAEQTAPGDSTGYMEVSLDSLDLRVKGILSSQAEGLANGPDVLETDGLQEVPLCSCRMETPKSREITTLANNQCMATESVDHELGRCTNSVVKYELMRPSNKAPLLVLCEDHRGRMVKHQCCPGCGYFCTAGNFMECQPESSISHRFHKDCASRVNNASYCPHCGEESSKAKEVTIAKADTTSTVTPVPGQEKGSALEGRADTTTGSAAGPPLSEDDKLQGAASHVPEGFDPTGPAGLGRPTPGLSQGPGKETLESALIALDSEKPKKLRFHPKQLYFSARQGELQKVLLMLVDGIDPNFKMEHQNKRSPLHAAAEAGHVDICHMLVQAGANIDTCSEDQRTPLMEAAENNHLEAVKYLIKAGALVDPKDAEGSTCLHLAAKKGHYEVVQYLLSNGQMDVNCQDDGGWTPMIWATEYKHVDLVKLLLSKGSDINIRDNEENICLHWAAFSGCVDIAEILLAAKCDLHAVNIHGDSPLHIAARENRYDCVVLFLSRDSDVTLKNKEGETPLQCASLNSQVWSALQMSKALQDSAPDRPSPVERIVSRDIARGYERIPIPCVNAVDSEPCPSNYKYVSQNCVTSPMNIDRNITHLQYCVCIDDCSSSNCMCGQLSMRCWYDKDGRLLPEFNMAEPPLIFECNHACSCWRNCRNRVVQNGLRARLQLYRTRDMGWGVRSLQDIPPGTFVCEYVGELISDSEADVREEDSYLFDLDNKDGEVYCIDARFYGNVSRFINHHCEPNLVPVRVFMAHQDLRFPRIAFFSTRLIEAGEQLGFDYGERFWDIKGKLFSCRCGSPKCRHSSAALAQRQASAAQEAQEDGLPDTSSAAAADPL
# Experiments:
# 3×MBT domain of L3MBTL1 = assay: Triple SILAC pull-down, 3xMBT/3xMBTD355N ratio (cytoplasmic, nuclear and chromatin fractions of 293T cells); assay type: binding, human; conditions: for 3xMBT/D355N UNC Heavy: experiment with UNC0638 in heavy SILAC media; for 3xMBT/D355N UNC Light: experiment with UNC0638 in light SILAC media;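 for all read-outs here: proteins quantified with MaxQuant, requiring at least two unique peptides and quantification in both label directions, normalized to the mean of proteins from a digested loading control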
# G9a and GLP = molecular target: T1, G9a and GLP; assay: Triple SILAC pull-down after UNC0638 treatment of 293T cells, DMSO/UNC0638 ratio of protein captured by 3×MBT; assay type: cell-based; parameters: endogenous in cells; host or cells: HEK 293T; conditions: for Relative to UNC0638 UNC Heavy: UNC0638 in heavy SILAC media; for Relative to UNC0638 UNC Light: UNC0638 in light SILAC media; for Relative to UNC0638 Average: average of UNC Light and UNC Heavy experiments; for Candidate G9a/GLP target: reduced association with 3xMBT after UNC0638 treatment;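 for all read-outs here: mass spectrometry (Q-Exactive) SILAC quantitation, DMSO/UNC0638 ratio computed after subtracting 3×MBTD355N mutant pull-down background, only proteins with at least twofold 3×MBT over mutant signal considered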
# [1] = SILAC ratio, pull-down 3xMBT vs 3xMBTD355N
# [2] = SILAC ratio DMSO/UNC0638 of protein pulled down with 3xMBT
# [3] = SILAC ratio 3xMBT vs 3xMBTD355N pull-down, 293T cells, all values in log base 2
# [4] = SILAC ratio DMSO relative to UNC0638, pull-down with 3xMBT, all values in log base 2
Relative to UNC0638 UNC Heavy (G9a and GLP; [2]) [log base 2],Relative to UNC0638 UNC Light (G9a and GLP; [2]) [log base 2],Relative to UNC0638 Average (G9a and GLP) [log base 2],Candidate G9a/GLP target (G9a and GLP),Relative to UNC0638 UNC Light (G9a and GLP; [4]) [log base 2],Relative to UNC0638 Average (G9a and GLP; all values in log base 2) [log base 2],Relative to UNC0638 UNC Heavy (G9a and GLP; [4]) [log base 2],Molecule,3xMBT/D355N UNC Heavy (3×MBT domain of L3MBTL1; [1]) [log base 2],3xMBT/D355N UNC Light (3×MBT domain of L3MBTL1; [1]) [log base 2],3xMBT/D355N UNC Heavy (3×MBT domain of L3MBTL1; [3]) [log base 2],3xMBT/D355N UNC Light (3×MBT domain of L3MBTL1; [3]) [log base 2]
0.36,0.41,0.38,✓,,,,"HNRNPL (protein, UniProt P14866 1-589, looked up) Heterogeneous nuclear …: MSRRLLPRAEKRRRRLEQRQQPDEQRRRSGAMVKMAAAGGGGGGGRYYGGGSEGGRAPKRLKTDNAGDQHGGGGGGGGGAGAAGGGGGGENYDDPHKTPASPVVHIRGLIDGVVEADLVEALQEFGPISYVVVMPKKRQALVEFEDVLGACNAVNYAADNQIYIAGHPAFVNYSTSQKISRPGDSDDSRSVNSVLLFTILNPIYSITTDVLYTICNPCGPVQRIVIFRKNGVQAMVEFDSVQSAQRAKASLNGADIYSGCCTLKIEYAKPTRLNVFKNDQDTWDYTNPNLSGQGDPGSNPNKRQRQPPLLGDHPAEYGGPHGGYHSHYHDEGYGPPPPHYEGRRMGPPVGGHRRGPSRYGPQYGHPPPPPPPPEYGPHADSPVLMVYGLDQSKMNCDRVFNVFCLYGNVEKVKFMKSKPGAAMVEMADGYAVDRAITHLNNNFMFGQKLNVCVSKQPAIMPGQSYGLEDGSCSYKDFSESRNNRFSTPEQAAKNRIQHPSNVLHFFNAPLEVTEENFFEICDELGVKRPSSVKVFSGKSERSSSGLLEWESKSDALETLGFLNHYQMKNPNGPYPYTLKLCFSTAQHAS",1.15,1.40,,
0.53,0.33,0.43,✓,,,,"DDX46 (protein, UniProt Q7L014 2-1031, looked up) Probable ATP-dependent RNA …: GRESRHYRKRSASRGRSGSRSRSRSPSDKRSKRGDDRRSRSRDRDRRRERSRSRDKRRSRSRDRKRLRRSRSRERDRSRERRRSRSRDRRRSRSRSRGRRSRSSSPGNKSKKTENRSRSKEKTDGGESSKEKKKDKDDKEDEKEKDAGNFDQNKLEEEMRKRKERVEKWREEQRKKAMENIGELKKEIEEMKQGKKWSLEDDDDDEDDPAEAEKEGNEMEGEELDPLDAYMEEVKEEVKKFNMRSVKGGGGNEKKSGPTVTKVVTVVTTKKAVVDSDKKKGELMENDQDAMEYSSEEEEVDLQTALTGYQTKQRKLLEPVDHGKIEYEPFRKNFYVEVPELAKMSQEEVNVFRLEMEGITVKGKGCPKPIKSWVQCGISMKILNSLKKHGYEKPTPIQTQAIPAIMSGRDLIGIAKTGSGKTIAFLLPMFRHIMDQRSLEEGEGPIAVIMTPTRELALQITKECKKFSKTLGLRVVCVYGGTGISEQIAELKRGAEIIVCTPGRMIDMLAANSGRVTNLRRVTYVVLDEADRMFDMGFEPQVMRIVDNVRPDRQTVMFSATFPRAMEALARRILSKPIEVQVGGRSVVCSDVEQQVIVIEEEKKFLKLLELLGHYQESGSVIIFVDKQEHADGLLKDLMRASYPCMSLHGGIDQYDRDSIINDFKNGTCKLLVATSVAARGLDVKHLILVVNYSCPNHYEDYVHRAGRTGRAGNKGYAYTFITEDQARYAGDIIKALELSGTAVPPDLEKLWSDFKDQQKAEGKIIKKSSGFSGKGFKFDETEQALANERKKLQKAALGLQDSDDEDAAVDIDEQIESMFNSKKRVKDMAAPGTSSVPAPTAGNAEKLEIAKRLALRINAQKNLGIESQDVMQQATNAILRGGTILAPTVSAKTIAEQLAEKINAKLNYVPLEKQEEERQDGGQNESFKRYEEELEINDFPQTARWKVTSKEALQRISEYSEAAITIRGTYFPPGKEPKEGERKIYLAIESANELAVQKAKAEITRLIKEELIRLQNSYQPTNKGRYKVL",2.10,2.67,,
,,,,−0.99,−0.99,,"CHEK1 (protein, UniProt O14757 1-476, looked up) Serine/threonine-protein …: MAVPFVEDWDLVQTLGEGAYGEVQLAVNRVTEEAVAVKIVDMKRAVDCPENIKKEICINKMLNHENVVKFYGHRREGNIQYLFLEYCSGGELFDRIEPDIGMPEPDAQRFFHQLMAGVVYLHGIGITHRDIKPENLLLDERDNLKISDFGLATVFRYNNRERLLNKMCGTLPYVAPELLKRREFHAEPVDVWSCGIVLTAMLAGELPWDQPSDSCQEYSDWKEKKTYLNPWKKIDSAPLALLHKILVENPSARITIPDIKKDRWYNKPLKKGAKRPRVTSGGVSESPSGFSKHIQSNLDFSPVNSASSEENVKYSSSQPEPRTGLSLWDTSPSYIDKLVQGISFSQPTCPDHMLLNSQLLGTPGSSQNPWQRLVKRMTRFFTKLDADKSYQCLKETCEKLGYQWKKSCMNQVTISTTDRRNNKLIFKVNLLEMDDKILVDFRLSKGDGLEFKRHFLKIKGKLIDIVSSQKIWLPAT",,,0.09,0.46
,,,,−0.49,−0.54,−0.58,"CSRP2 (protein, UniProt Q16527 1-193, looked up) Cysteine and glycine-rich …: MPVWGGGNKCGACGRTVYHAEEVQCDGRSFHRCCFLCMVCRKNLDSTTVAIHDEEIYCKSCYGKKYGPKGYGYGQGAGTLNMDRGERLGIKPESVQPHRPTTNPNTSKFAQKYGGAEKCSRCGDSVYAAEKIIGAGKPWHKNCFRCAKCGKSLESTTLTEKEGEIYCKGCYAKNFGPKGFGYGQGAGALVHAQ",,,1.27,1.96
